These results are taken from the DeepSol protein solubility set.

This series is described as follows: soluble on expression in E. coli; label from the status in PepcDB or PDB records.
Consider “MLNKTNTWTPSLFRDYKNAEHDACGIVSVMEKRKIPTKENIDLCIQSLVKMNHRAGFINGEGDGIGIHIDVPKALWNEKLKSSGYNPTIVDHPHFIVGHFFLNKNENIVDLKNHIRTQLNNENFAILFESDNVINSDALGPLGKQEEPLFWQVALIAENEVVNIEQTLFSVTIKIEENEAIHVASLSRDHVVYKVLGAGDTLVAYYNDLQHPLIASTMTLGHNRYSTNTLSNFFRVQPFSILGHNGEINTIAKLRDQAEMIHVPLTAGGSDSQDLNRTLETLLVQYGYSLFEAMDILFPPIINEIKLYETHLQDLYTYIREAWGHFAQGPAGIISRYKDEAVFSVDSLGLRPVWKVEIESSYIFSSEPGVVSPTEYVAEPKPLAPGEKVGLKWNEQDELVLYEHDDYQTQVYNRFKKKVDVTNYHLHLSIPKTKEIPDACDSMQVETKQYVAFGWDREHIQLLEQMATKGVEPIRSLGHDSPLAALDTDRRNIADFIKESVAVVTNPAIDRDREVEHFSTRTILGERPSLLSDAKKPFVVEMLSPIILEGSVAQSIAQELHTITYEQLIELFNTHSSIATISATFSQAETLQCALSRISSEAITAVNDGASLLLIDDADAHLNERLWIDPHLVTAKVHQVLSENKLRRNCSLVIRSGALRSLHDIVTLHGLGADSINPYLLFATVNDGTKTPITNLYNALNKGLEKVISTIGIHELRGYGRLYSSIGLHEEIANILQITNFLGSNDLAFSLESLAEDAQMRADDYNDPKVRIRKSFHIFPRIWKAIGDVAKGNSYDDYRDKLSELEENNPIAIRHLIQTKETKHVIPTEEVSISIQNHDLPFIISSMSFGSQNEIAFRAYAEAADQLNMISLNGEGGEIKDMIGKYPHTRGQQVASGRFGVNAELLNSSNLIEIKIGQGAKPGEGGHLPGSKVTAKIAEARNATIGSDLISPSNNHDIYSIEDLAQMITEIKTANQLAKVAVKVPVVPNIGTIAVGIAKAGADFINISGFDGGTGAARIHALQHVGLPVEIGVKAAHNALLEANMRHNVEIWADGGIRSVNDALKIMLLGANRIGFGTLSMIAIGCTTCRGCHLDTCHVGIATQIESEAQAKEHGLRRFVPRELESAVAGLLHLFTTFGEELKRLTGNLGYTNLQEIVGRSDLLEQVRGKNLLNLCNLLQTIEHPSVIKTEHVLEKQFEPIHSPHSKELVGVGVEQRVMGGLESCYRVRSKLYEDTKLEPLTLKYTNGSIPGNGLGAYNSENLFIHVNGGAQDGIGKTSFGGGIYITKAKGKDGLYYNGSVGKGFGYGAQKGALYVQGNADARAGIRLSGADMIIGGRMTKPLREKEQGNIGAYSNIKGFAFEYMTNGRALVLGDPGPWICAGMTGGVVYLRHDSSLGLTEQALKRRIAKGANVTLQPISKNGVRDVNELLLDYIRVLNEHEQYEEVALLTPLLDDMQQQFFEIIPKKEQADPSISTE”, for which the “soluble on expression in E. coli” value is listed as “not soluble”.

For the sequence “MLNQSVRFLARRANSQIRRSNLLKTGSLAAQDRGFFFGKRREPRCDLKNQSIVQADGSRKSAWLGDKPLRHESFIGILTTYAGIRRGPTVGGKEMLGKRVMKNGKLEWEWITYEQAFEISDNVSQAIRKLGIEIGDKSNIGIYSKNRPEWVLSDMAIHNFSNVSVPIYDNIPNEDMHYITNLCEIPLMFVDSEDKTTQLIKDKTYLSKSLKYIVQFDKVSDEMKAMAESNNFQLWSFDEFVELGKKHEHRPHAPPTPETLATISFTSGTTGRPKGAMLTHLNLCSTTVACEEFEHVEGELDSYLSYLPLAHVYERHCTLAHFKIGSNFHNFLNKFVEVFFFFKRISSKVTKIFRRIGFSRGDPALLVEDIQALAPRTFACVPRVLGKIYKSVMSQVQDKPVKKMILNSAIAYKLYHYKMTGKATRDTLVDKYILHKIQMILGPNIKQFLIPAAKTDNSSMRFARGAFGIEILELYGLTETSGPTTIQLVGDMLGSVGPPISCTSIKLVDIAELGYFVDENGGEVLVKGHNVTSGYYKDPKATASAFTEDGFMKTGDIGKFTPEGTLQLIDRRDNVLKLPQGEFVAPDLTESLYISSKFVQQICVHGNKEKPWLVAVVVPDPEYLASHANLEHNIEGKTYEELCKIPALAEDVLHALIKFFIWVFAIHLTPIAFSPQNGLTTPTHKNKRTAIAQFFKKQIVEMFDRIEKEEEGTELTTKIENAH”, the “soluble on expression in E. coli” value is on record as “not soluble”.

In the case of “MLNTIVLIRTDNFDKALTALADLVRYGGMKIRGTPRIIPPALSDWAFEQIVGEKPKKKVKAHVVAQIDLPASKAIGRIRDIHPPAHIIVIPVGSPVHKELLRLWGTFKELKGFHPPKEIKRLENIENEEDLELEHHHHHH”, the “soluble on expression in E. coli” value is given as “not soluble”.

For “MLPDSSVRLNKYISESGICSRREADRYIEQGNVFLNGKRATIGDQVKPGDVVKVNGQLIEPREAEDLVLIALNKPVGIVSTTEDGERDNIVDFVNHSKRVFPIGRLDKDSQGLIFLTNHGDLVNKILRAGNDHEKEYLVTVDKPITEEFIRGMSAGVPILGTVTKKCKVKKEAPFVFRITLVQGLNRQIRRMCEHFGYEVKKLERTRIMNVSLSGIPLGEWRDLTDDELIDLFKLIENSSSEVKPKAKAKPKTAGIKRPVVKMEKTAEKGGRPASNGKRFTSPGRKKKGRLEHHHHHH”, the “soluble on expression in E. coli” value is reported as “soluble”.

With “MLPLEPYLTQTSAVPQMSHFMCHSPTHKPQGLLPWAPFHQASVSLYPISPWPSESVCPPTCPGGASCWFPAGNAWDRVELGFLGFGAGGVSIAVPGFPLSCGQGCCAGGWLGHGARFPAKLRAFPQVIRRGWLTINNISLMKGGSKEYWFVLTAESLSWYKDEEEKEKKYMLPLDNLKIRDVEKGFMSNKHVFAIFNTEQRNVYKDLRQIELACDSQEDVDSWKASFLRAGVYPEKDQAENEDGAQENTFSMDPQLERQVETIRNLVDSYVAIINKSIRDLMPKTIMHLMINNTKAFIHHELLAYLYSSADQSSLMEESADQAQRRDDMLRMYHALKEALNIIGDISTSTVSTPVPPPVDDTWLQSASSHSPTPQRRPVSSIHPPGRPPAVRGPTPGPPLIPVPVGAAASFSAPPIPSRPGPQSVFANSDLFPAPPQIPSRPVRIPPGIPPGVPRRPPAAPSRPTIIRPAEPSLLD”, the “soluble on expression in E. coli” value is recorded as “soluble”.

For “MLPMQLPFQRARRLCLRAALAAIASAAHADDGTIVITGTITDTTCVIEDPAGPTHTKVVQLPKISKSALAKDGDEAGRTPFLITLKNCPSSLNNGVKAYFEPGPTTDYATGDLKAYSIAYNNNPATTQNAIIAASEAQGVQIRISNQNGTKIPMGVDAAAQNAQAFNPVTDTADNAKKKVTLRYLASYVKKSGNITTGQLTTYVGFSMIYP”, the “soluble on expression in E. coli” value was “not soluble”.

For the sequence “MLPSISINNTSAAYPESINENNNDEINGLVQEFKNLFNGKEGISTCIKHLLELIKNAIRVNDDPYRSNINNSSVTYIDIGSNDTDHITIGIDNQEPIELPANYKDKELVRTIINDNIVEKTHDINNKEMIFSALKEIYDGDPGFIFDKISHKLRHTVTEFDESGKSEPTDLFTWYGKDKKGDSLAIVIKNKNGNDYLSLGYYDQDDYHIQRGIRINGDSLTQYCSENARSASAWFESSKAIMAESFATGSDHQVVNELNGERLREPNEVFKRLGRAIRYNFQVDDAKFRRDNVKEIISTLFANKVDVDHPENKYKDFKNLEDKVEKRLQNRQTKYQNEINQLSALGVNFDDI”, the “soluble on expression in E. coli” value was “not soluble”.

Take “MLPSRKRLVLEQLGKTLSRFAGLQAVSPPARGWIRAIREALGMSGVQFAARLGVTPPRVTALERDELSGAVTMKTMRQAAEALDCVFLYALVPRTSLEETIRRQAEAVARERLLRVSHTMMLESQQLSEEEMKQALDAAVEELVRTMPKDLWSKAP”: the “soluble on expression in E. coli” value is “not soluble”.

Regarding “MLQNQYVREMRKYGVRGLRYDAAKHSKHEQIERSITPPLKNYNERLHNTNLFNPKYHEKAVMNYMEYLVTCQLDEEQMSSLLYERDDLSAIDFSLLMKTIKAFSFGGDLQTLASKPSSTISSIPSKRRILININHDFPNNGNLFNDFLFNHQQDEQLAMAYMAALPFSRPLVYWDGQVLKSTTEIKNYDGSTRVGGEAWLNKGCSTYQQLYNEFHALYIDKAGIWSAFEGVFATKNVLAFSRGDSVNINHSPHDGLVIINKGNEEVEGAWPNKLQPGKYKNMGSNSVNIIINNTRKIIPPGKAFMLRGGTLNINIPGRSALLLGKTGEPLNYLYL”, the “soluble on expression in E. coli” value was “not soluble”.

“MLRAKVRRIALANQKGGVGKTTTAINLAAYLARLGKRVLLVDLDPQGNATSGLGVRAERGVYHLLQGEPLEGLVHPVDGFHLLPATPDLVGATVELAGAPTALREALRDEGYDLVLLDAPPSLSPLTLNALAAAEGVVVPVQAEYYALEGVAGLLATLEEVRAGLNPRLRLLGILVTMYDGRTLLAQQVEAQLRAHFGEKVFWTVIPRNVRLAEAPSFGKTIAQHAPTSPGAHAYRRLAEEVMARVQEAGSHHHHHH”: the “soluble on expression in E. coli” value was “soluble”.
